Source: patent US20240293512A1 (HANMI PHARM, published 2024)
Bridge positions count the residues as written; N and C are the ends. Square brackets hold non-standard residues; d marks the D form. Ends that are not written are not given here. * marks the point of attachment. Acetyl(2-(4-imidazolyl)) = O=C(Cc1c[nH]cn1)*; Aib = CC(C)(N)C(=O)O

T1: human GIP receptor (human, UniProt P48546 22-466)
T1 sequence (looked up): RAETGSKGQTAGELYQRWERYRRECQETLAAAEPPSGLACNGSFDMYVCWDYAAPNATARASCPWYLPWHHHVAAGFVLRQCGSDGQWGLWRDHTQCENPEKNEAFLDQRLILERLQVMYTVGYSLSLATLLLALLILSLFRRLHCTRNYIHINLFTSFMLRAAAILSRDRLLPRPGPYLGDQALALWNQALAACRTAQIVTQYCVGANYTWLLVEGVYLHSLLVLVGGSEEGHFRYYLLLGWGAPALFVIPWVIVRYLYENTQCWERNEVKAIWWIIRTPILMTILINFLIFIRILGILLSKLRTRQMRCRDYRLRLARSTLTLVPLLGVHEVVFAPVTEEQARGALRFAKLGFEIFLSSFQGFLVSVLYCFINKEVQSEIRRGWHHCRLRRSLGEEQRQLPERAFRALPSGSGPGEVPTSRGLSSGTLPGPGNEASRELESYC

B1: triple agonist of SEQ ID NO: 12 (peptide)
peptide: [Acetyl(2-(4-imidazolyl))]GEGTFISDLSKYMDEQAVQLFVEWLMAGGPSSGAPPPSHG
B2: triple agonist of SEQ ID NO: 17 (peptide)
peptide: [Acetyl(2-(4-imidazolyl))]GQGTFTSDLSKQMDEERAREFIEWLLAQKPSSGAPPPSHG
B3: triple agonist of SEQ ID NO: 16 (peptide)
peptide: [Acetyl(2-(4-imidazolyl))]GQGTFTSDLSKQMDSEAQQLFIEWLKNGGPSSGAPPPSHG
B4: triple agonist of SEQ ID NO: 19 (peptide)
peptide: [Acetyl(2-(4-imidazolyl))]GQGTFTSDLSIQYDSEHQRDFIEWLKDTGPSSGAPPPSHG
B5: triple agonist of SEQ ID NO: 20 (peptide)
peptide: [Acetyl(2-(4-imidazolyl))]GQGTFTSDLSIQYEEEAQQDFVEWLKDTGPSSGAPPPSHG
B6: triple agonist of SEQ ID NO: 21 (peptide)
peptide: Y[Aib]QGTFTSDYSKYLDECRAKEFVQWLLDHHPSSGQPPPS
modifications: bridge 16-20
B7: triple agonist of SEQ ID NO: 14 (peptide)
peptide: [Acetyl(2-(4-imidazolyl))]GQGTFTSDYSIQLDEIAVRDFVEWLKNGGPSSGAPPPSHG
B8: triple agonist of SEQ ID NO: 18 (peptide)
peptide: [Acetyl(2-(4-imidazolyl))]GQGTFTSDLSKQMDSERAREFIEWLKNTGPSSGAPPPSHG
B9: triple agonist of SEQ ID NO: 13 (peptide)
peptide: [Acetyl(2-(4-imidazolyl))]GEGTFISDYSIQLDEIAVQDFVEWLLAQKPSSGAPPPSHG
B10: triple agonist of SEQ ID NO: 11 (peptide)
peptide: [Acetyl(2-(4-imidazolyl))]GEGTFTSDLSKYLDSRRQQLFVQWLKAGGPSSGAPPPSHG
B11: triple agonist of SEQ ID NO: 2 (peptide)
peptide: H[Aib]QGTFTSDVSSYLDGQAQKEFIAWLVKGC
B12: triple agonist of SEQ ID NO: 22 (peptide)
peptide: Y[Aib]QGTFTSDYSKCLDEKRAKEFVQWLLDHHPSSGQPPPS
modifications: bridge 16-20

Each binder was assayed against human GLP-1 receptor (human, UniProt P43220 24-463) (assay: cell-based or functional assay).

Row | Binder | In vitro activity compared with native peptide (%) vs GLP-1 (cAMP EC50) [%]
1 | B1 | 0.4
2 | B2 | 0.2
3 | B3 | 2.1
4 | B4 | < 0.1
5 | B5 | < 0.1
6 | B6 | 17.8
7 | B7 | 28
8 | B8 | < 0.1
9 | B9 | < 0.1
10 | B10 | 1.4
11 | B11 | 5.9
12 | B12 | 20.1

What follows are binders tested against human GCG receptor (human, UniProt P47871 26-477) (assay: cell-based or functional assay).
Sequence of human GCG receptor (P47871 26-477): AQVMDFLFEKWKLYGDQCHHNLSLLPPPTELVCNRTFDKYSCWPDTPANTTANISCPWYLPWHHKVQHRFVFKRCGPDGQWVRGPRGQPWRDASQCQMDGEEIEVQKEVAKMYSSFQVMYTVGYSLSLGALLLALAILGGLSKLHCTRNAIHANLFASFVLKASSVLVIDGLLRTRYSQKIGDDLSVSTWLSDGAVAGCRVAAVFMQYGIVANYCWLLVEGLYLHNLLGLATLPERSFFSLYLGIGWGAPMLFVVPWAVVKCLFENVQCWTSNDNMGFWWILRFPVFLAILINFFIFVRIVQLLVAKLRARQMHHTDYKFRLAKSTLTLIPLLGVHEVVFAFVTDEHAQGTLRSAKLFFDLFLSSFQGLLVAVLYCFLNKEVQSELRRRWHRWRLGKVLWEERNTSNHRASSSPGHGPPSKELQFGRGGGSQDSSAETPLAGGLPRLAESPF

Row | Binder | In vitro activity compared with native peptide (%) vs Glucagon (cAMP EC50) [%]
13 | B1 | < 0.1
14 | B2 | < 0.1
15 | B3 | < 0.1
16 | B4 | < 0.1
17 | B5 | < 0.1
18 | B6 | 267
19 | B7 | < 0.1
20 | B8 | < 0.1
21 | B9 | < 0.1
22 | B10 | < 0.1
23 | B11 | < 0.1
24 | B12 | 140

What follows are binders tested against T1, human GIP receptor (assay: cell-based or functional assay).

Row | Binder | In vitro activity compared with native peptide (%) vs GIP (cAMP EC50) [%]
25 | B1 | < 0.1
26 | B2 | < 0.1
27 | B3 | < 0.1
28 | B4 | < 0.1
29 | B5 | < 0.1
30 | B6 | 22.7
31 | B7 | < 0.1
32 | B8 | < 0.1
33 | B9 | < 0.1
34 | B10 | < 0.1
35 | B11 | < 0.1
36 | B12 | 59.7
